Data as given in patent US20240059799A1 (Pfizer, published 2024).

Columns and labels:
human IL-12 = target: T1, human IL-12 (human, UniProt P29460 23-328; P29459 23-219); test: cell-based or functional assay
T1 sequence 1: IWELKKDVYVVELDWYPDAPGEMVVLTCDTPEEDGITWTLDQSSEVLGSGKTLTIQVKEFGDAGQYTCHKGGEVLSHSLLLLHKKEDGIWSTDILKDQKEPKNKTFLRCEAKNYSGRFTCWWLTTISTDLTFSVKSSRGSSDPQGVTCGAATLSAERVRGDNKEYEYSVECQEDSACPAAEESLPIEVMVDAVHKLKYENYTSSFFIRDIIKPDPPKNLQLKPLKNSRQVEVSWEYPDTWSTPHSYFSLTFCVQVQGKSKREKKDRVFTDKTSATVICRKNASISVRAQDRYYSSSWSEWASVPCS
T1 sequence 2: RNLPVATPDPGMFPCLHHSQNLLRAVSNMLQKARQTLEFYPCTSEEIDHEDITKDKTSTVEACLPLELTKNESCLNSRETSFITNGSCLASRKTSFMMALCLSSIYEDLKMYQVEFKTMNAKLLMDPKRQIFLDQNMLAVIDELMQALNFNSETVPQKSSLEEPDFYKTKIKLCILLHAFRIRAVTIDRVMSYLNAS

cynomolgus monkey IL-12 = target: T2, cynomolgus monkey IL-12 (cynomolgus monkey); test: cell-based or functional assay
T2 chain 1: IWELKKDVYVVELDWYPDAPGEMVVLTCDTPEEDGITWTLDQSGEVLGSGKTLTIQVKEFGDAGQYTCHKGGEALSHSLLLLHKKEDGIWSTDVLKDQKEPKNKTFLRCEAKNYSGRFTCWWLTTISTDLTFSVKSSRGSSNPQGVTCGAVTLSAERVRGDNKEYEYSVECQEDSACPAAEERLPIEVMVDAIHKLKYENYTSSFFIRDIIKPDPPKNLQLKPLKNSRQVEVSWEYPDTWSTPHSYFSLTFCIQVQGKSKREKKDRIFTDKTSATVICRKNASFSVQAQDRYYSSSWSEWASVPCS
T2 chain 2: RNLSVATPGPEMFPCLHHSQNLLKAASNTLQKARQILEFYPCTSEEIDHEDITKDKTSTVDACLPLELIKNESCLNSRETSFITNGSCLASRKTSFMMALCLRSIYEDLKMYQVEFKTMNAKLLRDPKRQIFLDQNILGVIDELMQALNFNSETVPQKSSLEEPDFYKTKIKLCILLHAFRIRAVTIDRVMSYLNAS

human IL-23 = target: T3, human IL-23 (human, UniProt P29460 23-328; Q9NPF7 20-189); test: cell-based or functional assay
T3 sequence 1: T1 sequence 1
T3 sequence 2: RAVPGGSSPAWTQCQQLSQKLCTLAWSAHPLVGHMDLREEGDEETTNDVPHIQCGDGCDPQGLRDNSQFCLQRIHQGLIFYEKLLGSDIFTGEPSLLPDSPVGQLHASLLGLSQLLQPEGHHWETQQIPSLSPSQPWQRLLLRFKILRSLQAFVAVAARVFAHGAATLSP

recombinant rat TL1A = target: T4, recombinant rat TL1A (rat, UniProt Q8K3Y7 76-252); test: SPR, Biacore T200, 37 C; biotinylated TL1A captured on Biotin CAPture chip, antibody injected; KD value is approximate
T4 sequence: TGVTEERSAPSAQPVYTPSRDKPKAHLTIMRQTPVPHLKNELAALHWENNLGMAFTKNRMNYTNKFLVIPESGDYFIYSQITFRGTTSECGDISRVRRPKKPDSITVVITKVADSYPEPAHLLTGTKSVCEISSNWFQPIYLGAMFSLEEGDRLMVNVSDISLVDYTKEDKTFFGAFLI
Experimental: In order to determine binding to TL1A, kinetic assays were conducted at 37° C. using a collection rate of 10 Hz on a Biacore™ T200 instrument (GE Healthcare). […] For the analysis of the p40 binding arm, kinetic assays were conducted at 37° C. using a collection rate of 10 Hz on a Biacore™ 8 K+ instrument (GE Healthcare).

KIT-225 STAT4 phosphorylation, Human IL-12 IC50 (human IL-12): 1.11 nM | KIT-225 STAT4 phosphorylation, Cynomolgus Monkey IL-12 IC50 (cynomolgus monkey IL-12): 0.95 nM | KIT-225 STAT3 phosphorylation, Human IL-23 IC50 (human IL-23): 3.73 nM | Kd (recombinant rat TL1A): ~1080 nM
B1: p40TL1A-0033 bispecific antibody (bispecific antibody, human IgG1, kappa)
heavy: EVQLVQSGAEVKKPGESLKISCKGSGYSFTTYWLGWVRQMPGKGLDWIGIMSPVDSDIRYSPSFQGQVTMSVDKSITTAYLQWNSLKASDTAMYYCARRRPGQGYFDFWGQGTLVTVSSASTKGPSVFPLAPSSKSTSGGTAALGCLVKDYFPEPVTVSWNSGALTSGVHTFPAVLQSSGLYSLSSVVTVPSSSLGTQTYICNVNHKPSNTKVDKKVEPKSCDKTHTCPPCPAPEAAGAPSVFLFPPKPKDTLMISRTPEVTCVVVDVSHEDPEVKFNWYVDGVEVHNAKTKPREEQYNSTYRVVSVLTVLHQDWLNGKEYKCKVSNKALPAPIEKTISKAKGQPREPQVCTLPPSREEMTKNQVSLWCLVKGFYPSDIAVEWESNGQPENNYKTTPPVLDSDGSFFLYSKLTVDKSRWQQGNVFSCSVLHEALHSHYTQKSLSLSPGK
light: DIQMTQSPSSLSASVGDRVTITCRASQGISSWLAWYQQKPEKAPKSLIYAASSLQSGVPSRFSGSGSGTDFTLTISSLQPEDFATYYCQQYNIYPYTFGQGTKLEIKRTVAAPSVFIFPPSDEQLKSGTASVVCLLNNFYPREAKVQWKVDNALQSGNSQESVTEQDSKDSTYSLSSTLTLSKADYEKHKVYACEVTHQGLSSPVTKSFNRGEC
chain 1: not shown
chain 2: QVQLVQSGAEVKKPGASVKVSCKASGYDYTYYGISWVRQAPGQGLEWMGWISTYNTGTHYAPSLQGRVTMTTDTSTSTAYMELRSLRSDDTAVYYCARESYYGSGAFRGGMDVWGQGTTVTVSSASTKGPSVFPLAPSSKSTSGGTAALGCLVKDYFPEPVTVSWNSGALTSGVHTFPAVLQSSGLYSLSSVVTVPSSSLGTQTYICNVNHKPSNTKVDKKVEPKSC
notes: Single cell KiH, modified Fd format; IgG1 effector-function-minimized Fc with LS mutations
